The record followed here is patent US20250243262A1.

In experiment [1] the target is rPcrV protein (recombinant Pseudomonas PcrV) (Pseudomonas aeruginosa). In words: SPR (Bio-Rad ProteOn XPR36); antibody captured on GLC sensor chip with anti-human IgG, rPcrV injected at multiple concentrations.
The target is the same in experiment [2]. In words: SPR (Bio-Rad ProteOn XPR36); antibody captured, rPcrV as analyte; table under the sensorgram.

B1: V2L2-GL (V2L2-germlined mAb) (antibody, V domains shown)
VH: EVQLLESGGGLVQPGGSLRLSCAASGFTFSSYAMNWVRQAPGKGLEWVSAITISGITAYYTDSVKGRFTISRDNSKNTLYLQMNSLRAEDTAVYYCAKEEFLPGTHYYYGMDVWGQGTTVTVSS
VL: AIQMTQSPSSLSASVGDRVTITCRASQGIRNDLGWYQQKPGKAPKLVIYSASTLQSGVPSRFSGSGSGTDFTLSISSLQPDDFATYYCLQDYNYPWTFGQGTKVEIK
The Kd is a measure of binding affinity in units of concentration. What is called koff is a measure of how fast the partners let go of each other. For orientation: kon means the second-order rate constant of association. B1: in experiment [1], the Kd came to 0.143 nM, the koff was 0.000116 s⁻¹ and the kon was 808000 M⁻¹ s⁻¹. Moreover, in experiment [2], the Kd is 0.143 nM, the koff was found to be 0.000116 s⁻¹ and the on-rate (kon) is 808000 M⁻¹ s⁻¹.
